Assay results taken from publication PMC7831708.
pEC50: −log10 of the molar value.

Target: recombinant human PD-1 (human) (UniProt Q15116)
Experiment: ELISA

Sequence of UniProt Q15116 (Q15116 25-170): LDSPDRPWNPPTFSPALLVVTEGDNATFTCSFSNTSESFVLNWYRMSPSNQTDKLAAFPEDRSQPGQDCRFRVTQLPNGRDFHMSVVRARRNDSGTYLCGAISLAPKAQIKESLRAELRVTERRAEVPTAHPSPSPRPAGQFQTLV

## Recombinant cynomolgus monkey PD-L1.mFc (Fc fusion)
  pEC50: 8.54
